Assay results reported in US20240197902A1 (ACCELERON PHARMA, published 2024).

Columns and labels:
[1] = target: T1, GDF11 (UniProt O95390 299-407); assay: not described
T1 construct: also called BMP11
T1 sequence (looked up): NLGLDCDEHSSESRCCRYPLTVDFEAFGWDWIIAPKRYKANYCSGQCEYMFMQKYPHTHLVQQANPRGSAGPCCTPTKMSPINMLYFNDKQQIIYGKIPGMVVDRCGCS

[2] = target: T2, activin C (UniProt P55103 237-352); assay: SPR (Biacore), Fc fusion captured by anti-Fc antibody
T2 sequence (looked up): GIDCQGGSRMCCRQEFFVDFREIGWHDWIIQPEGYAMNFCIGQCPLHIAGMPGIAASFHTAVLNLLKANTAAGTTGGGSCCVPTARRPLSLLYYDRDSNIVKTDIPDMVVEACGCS

[3] = target: T3, GDF8 (UniProt O14793 267-375); assay: as above
T3 construct: also called myostatin
T3 sequence (looked up): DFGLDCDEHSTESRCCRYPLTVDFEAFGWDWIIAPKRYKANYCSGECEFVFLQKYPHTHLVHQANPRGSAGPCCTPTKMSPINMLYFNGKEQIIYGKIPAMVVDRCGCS

[4] = target: T1, GDF11; assay: as above
[5] = target: T4, GDF3 (UniProt Q9NR23 251-364); assay: as above
T4 sequence (looked up): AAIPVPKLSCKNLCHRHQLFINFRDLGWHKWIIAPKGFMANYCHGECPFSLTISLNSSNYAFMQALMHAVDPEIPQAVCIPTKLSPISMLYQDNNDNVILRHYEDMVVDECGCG

[6] = target: T5, BMP6 (UniProt P22004 375-513, limits assumed); assay: as above
T5 sequence (looked up): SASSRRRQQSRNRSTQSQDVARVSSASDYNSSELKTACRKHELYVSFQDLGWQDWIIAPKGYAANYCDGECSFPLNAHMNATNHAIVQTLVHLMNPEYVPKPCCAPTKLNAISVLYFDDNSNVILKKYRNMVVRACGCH

[7] = target: T6, BMP10 (UniProt O95393 317-424); assay: as above
T6 sequence (looked up): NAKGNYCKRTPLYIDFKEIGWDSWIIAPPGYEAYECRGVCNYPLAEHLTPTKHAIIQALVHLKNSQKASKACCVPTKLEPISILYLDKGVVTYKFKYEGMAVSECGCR

[8] = target: T7, BMP5 (UniProt P22003 317-454, limits assumed); assay: as above
T7 sequence (looked up): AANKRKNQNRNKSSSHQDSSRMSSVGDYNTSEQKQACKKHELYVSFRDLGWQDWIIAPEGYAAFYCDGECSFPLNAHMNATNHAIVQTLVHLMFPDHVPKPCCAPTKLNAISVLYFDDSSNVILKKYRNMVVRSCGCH

[9] = target: T8, BMP9 (UniProt Q9UK05 320-429); assay: as above
T8 construct: also called GDF2
T8 sequence (looked up): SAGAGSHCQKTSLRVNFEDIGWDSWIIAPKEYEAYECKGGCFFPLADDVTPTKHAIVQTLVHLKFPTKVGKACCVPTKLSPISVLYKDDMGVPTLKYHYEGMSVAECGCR

[10] = target: T9, activin A (UniProt P08476 311-426); assay: as above
T9 sequence (looked up): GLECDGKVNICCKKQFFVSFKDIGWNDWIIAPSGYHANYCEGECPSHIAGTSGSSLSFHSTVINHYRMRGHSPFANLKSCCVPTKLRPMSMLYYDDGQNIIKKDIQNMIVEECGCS

[11] = target: T10, activin AC (UniProt P08476 311-426; P55103 237-352); assay: as above
T10 construct: Heterodimer of beta A and beta C subunits
T10 sequence (looked up) 1: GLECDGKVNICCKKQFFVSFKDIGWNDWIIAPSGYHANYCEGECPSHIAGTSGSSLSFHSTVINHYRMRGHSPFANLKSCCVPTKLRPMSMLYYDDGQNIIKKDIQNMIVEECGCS
T10 sequence (looked up) 2: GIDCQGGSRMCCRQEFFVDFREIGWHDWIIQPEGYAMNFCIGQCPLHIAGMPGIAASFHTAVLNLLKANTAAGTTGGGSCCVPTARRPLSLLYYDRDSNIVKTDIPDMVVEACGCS

[12] = target: T11, activin B (UniProt P09529 293-407); assay: as above
T11 sequence (looked up): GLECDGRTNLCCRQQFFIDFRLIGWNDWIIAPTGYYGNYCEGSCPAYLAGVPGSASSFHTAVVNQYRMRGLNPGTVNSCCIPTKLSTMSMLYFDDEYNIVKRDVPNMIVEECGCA

[13] = target: T6, BMP10; assay: SPR (Biacore), Fc fusion captured by anti-Fc antibody, 37 C
[14] = target: T9, activin A; assay: as above
[15] = target: T3, GDF8; assay: as above
[16] = target: T1, GDF11; assay: as above
[17] = target: T4, GDF3; assay: as above
[18] = target: T5, BMP6; assay: as above
[19] = target: T6, BMP10; assay: as above; remark: listed apart in the source
[20] = target: T8, BMP9; assay: as above
[21] = target: T9, activin A; assay: as above; remark: listed apart in the source
[22] = target: T11, activin B; assay: as above

B1: ActRIIB-Fc with C-terminal tail (A64 background) (Fc fusion)
chain: SGRGEAETRECIYYNANWELERTNQSGLERCEGEQDKRLHCYASWANSSGTIELVKKGCWLDDFNCYDRQECVATEENPQVYFCCCEGNFCNERFTHLPEAGGPEVTYEPPPTAPTGGGTHTCPPCPAPELLGGPSVFLFPPKPKDTLMISRTPEVTCVVVDVSHEDPEVKFNWYVDGVEVHNAKTKPREEQYNSTYRVVSVLTVLHQDWLNGKEYKCKVSNKALPVPIEKTISKAKGQPREPQVYTLPPSREEMTKNQVSLTCLVKGFYPSDIAVEWESNGQPENNYKTTPPVLDSDGSFFLYSKLTVDKSRWQQGNVFSCSVMHEALHNHYTQKSLSLSPGK
notes: Alanine at position 64; also called preferred version of ActRIIB-Fc
binding result [1]: binds

B2: ActRIIB-Fc:ALK7-Fc heterodimer (Fc fusion)
chain 1: GRGEAETRECIYYNANWELERTNQSGLERCEGEQDKRLHCYASWRNSSGTIELVKKGCWLDDFNCYDRQECVATEENPQVYFCCCEGNFCNERFTHLPEAGGPEVTYEPPPTAPT
chain 2: ELSPGLKCVCLLCDSSNFTCQTEGACWASVMLTNGKEQVIKSCVSLPELNAQVFCHSSNNVTKTECCFTDFCNNITLHLPTASPNAPKLGPME
Kd [2]: 6.9 nM | koff [2]: 0.0024 s⁻¹ | kon [2]: 350000 M⁻¹ s⁻¹ | Kd [3]: 0.27 nM | koff [3]: 0.001 s⁻¹ | kon [3]: 3.7e+06 M⁻¹ s⁻¹ | Kd [4]: 0.008 nM | koff [4]: 0.00075 s⁻¹ | kon [4]: 9.5e+07 M⁻¹ s⁻¹ | Kd [5]: 4.5 nM | koff [5]: 0.01 s⁻¹ | kon [5]: 2.3e+06 M⁻¹ s⁻¹ | Kd [6]: 5.3 nM | koff [6]: 0.0063 s⁻¹ | kon [6]: 1.2e+06 M⁻¹ s⁻¹ | Kd [7]: 0.19 nM | koff [7]: 0.0028 s⁻¹ | kon [7]: 1.5e+07 M⁻¹ s⁻¹ | Kd [8]: 57 nM | koff [8]: 0.0085 s⁻¹ | kon [8]: 150000 M⁻¹ s⁻¹ | Kd [9]: > 1.4 nM | Kd [10]: 0.043 nM | koff [10]: 0.0019 s⁻¹ | kon [10]: 4.4e+07 M⁻¹ s⁻¹ | Kd [11]: 0.22 nM | koff [11]: 0.00057 s⁻¹ | kon [11]: 2.6e+06 M⁻¹ s⁻¹ | Kd [12]: 0.017 nM | koff [12]: 0.0002 s⁻¹ | kon [12]: 1.2e+07 M⁻¹ s⁻¹

B3: ActRIIB-Fc:ActRIIB(L79E)-Fc heterodimer (Fc fusion)
chain 1: GRGEAETRECIYYNANWELERTNQSGLERCEGEQDKRLHCYASWRNSSGTIELVKKGCWLDDFNCYDRQECVATEENPQVYFCCCEGNFCNERFTHLPEAGGPEVTYEPPPTAPT
chain 2: GRGEAETRECIYYNANWELERTNQSGLERCEGEQDKRLHCYASWRNSSGTIELVKKGCWEDDFNCYDRQECVATEENPQVYFCCCEGNFCNERFTHLPEAGGPEVTYEPPPTAPT
fold faster off-rate than ActRIIB-Fc homodimer [13]: ~10 fold | fold faster off-rate than ActRIIB-Fc homodimer [14]: ~10 fold | Kd [15]: 0.15 nM | koff [15]: 0.0005 s⁻¹ | kon [15]: 3.4e+06 M⁻¹ s⁻¹ | Kd [16]: 0.009 nM | koff [16]: 0.00036 s⁻¹ | kon [16]: 4e+07 M⁻¹ s⁻¹ | Kd [17]: 10 nM | koff [17]: 0.0059 s⁻¹ | kon [17]: 580000 M⁻¹ s⁻¹ | Kd [18]: 0.056 nM | koff [18]: 0.018 s⁻¹ | kon [18]: 3.3e+08 M⁻¹ s⁻¹ | Kd [19]: 0.042 nM | koff [19]: 0.002 s⁻¹ | kon [19]: 4.8e+07 M⁻¹ s⁻¹ | Kd [20]: > 2.8 nM | Kd [21]: 0.17 nM | koff [21]: 0.0015 s⁻¹ | kon [21]: 8.8e+06 M⁻¹ s⁻¹ | Kd [22]: 0.025 nM | koff [22]: 0.00021 s⁻¹ | kon [22]: 8.3e+06 M⁻¹ s⁻¹
